Measured values reported in a protein production outcome set (Wang et al. 2014).

assay: label from the status in PepcDB records

For “MNIVTLLGSPRSRGISAAIAARFTDTAAGLGAQTRTFELNRLAYRGCQGCYACKKTLDHCVLTDDLAQVLDAVRGADVVVLASPVYYGDVTAQLKGFIDRTFSYLKPDYLSNPQPSRLSPKKLVFVLTQGHPDEGMFADIFPRYEGFLTWLGFVDARLIRACGFGPSTVDKVPEQYLREAEQAAREIVGQGKG”, which protein production is on record?
The protein production was “failed”.

Which protein production does the source give for “MNKDFTFTIKSSCFDENYNPSENTRITTNFANLARGKSRQENLRNTLVMMDNRFNTLAYWDNPKANRYSVELEIISVEIDIEGNGDTFPAIEILKTNIVDKKTNERIEGIVGNNFSSYVRDYDFSVLLPEHNKSHPGFSTPDNFGDLHGKLFKCFTNSKFYKDNFNKQPVICLSVSSKNTYHRTGNQHPVLGIEYQQNEPSLTDHYFERMGLQARYFMPANSVAPLAFYFSGDLLNDYTNLELISTISTMETFQKIYRPEIYNANSAAGQYYQPNLNNQDHSLTKIVYDRVERSQLAIEQGKFTEEHFIKPYKNILEQWSAHYAR” here?
Its protein production is “not failed”.

For “MNKEALVNRLNASAKRQKADIVIKNGKIMDVYNQEWIYEDIAITDGVIVGLGEYEGENIIDAEGQMIVPGFIDGHVHIESSMVTPIEFAKAVLPHGVTTVVTDPHEIANVSGEKGIEFMLEQARHTPLNIHFMLPSSVPAASFERSGAILKAADLKPFYEEEEVLGLAEVMDYVSVQQAEKDMVQKLLDARVAGKRIDGHLAGLSTDLINIYRTAFVLNDHEVTSKEEALDRIRRGMYVMMREGSVAKNTLNVLPAVNEKNRTPVFFCTDDKHVDDLLSEGSVNHQVKMAIQAGLNPFLAYQLGSLNAAECYGLDTKGAIAPGFDADLLFVSDLENVTVTMTMVKGQTVAEDSKAVYQDHASTAAPDQALLDSVKLAAPLNKQDFHMPIDSEQQINVIQIIPNQLETRLVQVPAPVAREFEPDTELDLLKIAVVERHKGLKETGLGVVKGFGFKSGAIATTISHDSHNIIAVGTNDEDIAAAVNKLQEIGGGLTIIKNGEELHSVPLPIAGLLSDQSAEQVNQSLLTLHDKLSLIGFTGGFNPFLTLSFLALPVIPDIKMTTTGLFDVKSFQHISLQLEHHHHHH”, which protein production is on record?
Its protein production is “not failed”.

For “MNKEEQEDPQQEQISTVQENDPRNLQQLGMLLVSPGLDEDRLSEKMISKIKKSRDIEKNQKLLISRLSQKEEDHSGKPPTITTSPAEKTVPFKSLNHSLKRKRVPPALNFSDIQASSHLHGSKSAPPNITRFPQHKNSLRVRYMGRMAPTNQDYHPSVANSYMTATYPYPYTGLPPVPCYPYSSTPTQTHAYEGYYSPMYPGPLYNNGIIPADYHAKRKKLAGRSPHLEDLTSRKRTFVSKHHNGDPIISKTDEDIECSVTKNSLSEGASLNDDADDDNDKERIIIGEISLYDDVFKFEVRDDKNDYMKACETIWTEWHNLKK”, which protein production is on record?
The protein production was “failed”.

With “MNKFIKYFLILLSFGLLVVPIIFATQLYQSSESAFESSQNTKDSQRKSTLRDSKVDPEKQPISILFLGIDDNEGREKNGQSVEHSRSDAMILSTFNQKKHQIRMLSIPRDTISYIPKVGYYDKITHAHAYGGPLAAMDSVEATMNVPVDYYVRINMKAFVEAVDELGGIYYDVPYNLNEPNSDDTGRIKIKKGYQKLNGDQALAVARTRHHDSDLKRGQRQMELIKILFQKAQNLKSIDKLDNVISIVGKNAKHNLTQKEIKSLAKMYLGGSTEIKTSQLKGKDDYLNDIYYYHPSVKSIMEYSNLLRNDLDLSKITNKNDFLDQRVIKRYGSLVPLTELDEDLLRKNQKESTDSQKESDSSSQNNDEEDQTNEQTDQNSLNGNEQYPNQQDNNQTNGENGMINNDNYPYAQ” as the sequence, how does the protein production read?
The protein production was “failed”.

For “MNKKRMIAMVSTALLVTGCAEVGNAQTVAVENSGQSVQKNIVKSIQSQANPLKTIEPSKPFEDLKPLKKMIGNAQYVGLGENTHGSSEIFTMKFRLVKYLVTEMGFTNFAMEEDWGNGLKLNEYIQTGKGNPREFLKLLYPTDEIIAMIEWMKDYNADPSNKKKIQFIGLDLKALDQGSFNKVIDYVRLHRPDLLAEVEENYKELSSFTGSIQEYMKLTPKLKEKFKANAERVARLLKDENEQANTEIIPSEYIWAKATASAIEKFTTMLLPNDYPSIIKLHEQYLADHAMWAQETFGGKTMVWAHNIHIAKGIIDEKLYPYVAGQFLKERLDNNYVTIGSTTTEGNFTLYSEYNPSTGGKITTDTIPQDVKSFNYTLGKVPYKMFLLDNRHLKGQAEKWVKAKRPLLSIGGQILPNSSVYFDTSLLEQFDIIFHIRKTSPSHIKLEHHHHHH”, which protein production is on record?
Its protein production is “not failed”.

For “MNKNILFLSLMALPVFAFAENNLVLPTITVSAEQQVQSYAADRLNKQAALGSLGEKSVLDTPFSLVSYSDVMIRDQQASTVSEVLRADPSIRETTNAGHLNENLQIRGFTVGFEDYNINGLYGMSPSGRIPTDILDHVTLLEGPNALVAGMAPAGSVGGVVMAQTKRATKDL”, which protein production is on record?
The protein production was “failed”.

For “MNKNTWIIGFTLFAMFFGAGNLIFPTQLGLESGHFFWPAILAFALTGIGLPLLGVVVGALDKHGYIGSFNKISPRFSLIFLIIIYLTIGPLFAIPRTASTSFEMSVTPIAQNSGNLALFIFTVIYFLIVLYLCLNPNKMIDRIGSLLTPLLLITIVAMIIKGFVDFSGHSSNYGMTNAYHSNLSGFSQGFTQGYLTMDAIASIAFSMIVVNAIKTTGIQHADKIFKQTIIAGLIAAIALVFIYISLGYIGNHINIPSDTLKELKAKDQNIGTYLLTTMATKGFGTFGKYLLGIIVSLACLTTACGLIVSVSEYFHRILPKIPYKVFVIFFILVSFILANQGLNSVIKMSVPVLSVIYPVAITVILLILIARFIPTKRIAQQIPLIIVAIESILSLITTQGWIRISFIDDLPLKEYSLEWFPIAVVATLVGYMISYFVKQSNIVYQKE”, which protein production is on record?
Its protein production is “failed”.

With “MNKQIDLPIADVQGSLDTRHIAIDRVGIKAIRHPVVVADKGGGSQHTVAQFNMYVNLPHNFKGTHMSRFVEILNSHEREISVESFEEILRSMVSRLESDSGHIEMAFPYFINKSAPVSGVKSLLDYEVTFIGEIKHGNQYSFTMKVIVPVTSLCPCSKKISDYGAHNQRSHVTISVRTNSFIWIEDIIRIAEEQASCELYGLLKRPDEKYVTERAYNNPKFVEDIVRDVAEVLNHDDRIDAYIVESENFESIHNHSAYALIERDKRIR” as the sequence, how does the protein production read?
The protein production was “not failed”.

Which protein production does the source give for “MNKRCEEVLRRYFAEVPFIIEKACELAESMLGEGSHGLSHTIRVLDLALQIGRVEGANLEVLALAAILHDIARPLEDKGRIKDHAQEGARIVRSFLSKLRYPHVDEVAHAIEAHRFSTNIEPRTLEAKILSDADKIDALGAIGIARVFMYAGEKGRSIEDSIKHFEEKILRLKDLMYTETGKRIAQERHKIVEEFVNILKKELILEHHHHHH” here?
Its protein production is “not failed”.

With “MNKRFFPRIDLPLLMAIIPIMLLSSLTLWSASGFDESMLFKHLARCALTLVCILVMSSIPAASYQRSAPYLYFVAVSLLLAVALFGDSTNGSQRWLDIGFFRFQPSELIKLSIPIMIAWMLHLEGGRPDFRKIALCLMITLVPAGLIALQPDLDGAIFTVIYALFVLFFAGMSWKIIGGFVVSVLTLAPILWFFVMEAYQKSRVTQFLHPESDPLGSGYQIIQSLIAIGSGGMKGKGWMNATQGTLGFIPESHTDFIFSTYAEEWGFIGCVVLLALYLFITARVMLLACQSEHFFSRLVSGTLAMSFFLYAFINTGMVSGLLPVMGSPLPFFSYGGTAMLTQGICFGVIMSLCYSKYRNT” as the sequence, how does the protein production read?
Its protein production is “failed”.

Which protein production does the source give for “MNKTMAKSLSVIIPACNEVDTISDVIQSVRPLNPVEIIVVANGCNDGTEDVADRLGCKVIKHTELLGNDVGRAVGAKHAIGDVLLFIDGDFAIPTSKLKLFLNPILYDQADVVLNNLDALFLKRQKTTSITVWRQILNAMLEREELKMNSLLDVPHALTKEVVQSIGYECFVNPIVAHLRLVQSKWRISRHCAIDVITPNKFRPFQHAAYGTNLSQSEKRMIGDHIEAVAERILSSDERGGYYDGNRKRDSVYHTLSFEEFYQGWGVTSDFYKGKQLSVVIPVQDEEKTIGNVIEELRKIEPFEIIVVVNGSSDKTKKIAKDKGATTIVYKEALGNDVGRSLGTYFAKGEIVLFIDGDFVIPASELYPFAKAIADGTDVALNDLNHYLDLRVPLHLVTAFKYALNLACDRKDLGVGSLIAVPNAFSRKCLKEIGYRSLLAPCVAQVKAILSGFEVACVSRVEVDKMNRIRPSEHFAKIGHPPAVLRIIGDHIEGLDQIIALTDNRGGFYDGNRKRDVLLEHHHHHH” here?
Its protein production is “failed”.

For “MNLDETLLNRIKVIALLNLKLVRKLVIFIMVNCLVLSGIPAALCMSSAPVVYVTGDGSGDFNCDGTDDHVQINQALKFVAENSAYTTVYLKGPFTYVIDDTLLIGSNTILEGDSSAKIKLVNNANWESRKPMIKERSTGISGITIRGFTIDGNREGNTNVVSGKGYYNLIHLSSCQNIKVYDMYLTNNHGDGLKTDKCTNVEFYDNEIYLLGHDGLYASGCSDVEAYGNTITCRTNSGLRLYNTNKASFHDNVITSEGSGGAGIEIQKYNTPAMDDIEVYNNVIYKTALAGIWIFGSGSYSASTANVHVHHNQIYDTGTKTSNSIIGGIVSNGFSGLIENNVIDGAYGAGIVQKTVYSPAPSGSGFLLTVRNNILSNSRSSSGGGSGYGINNELSGTHSFVLQNNCYYGSAGGDSRNVQLSASDIKVDPQFADRSSHDYHLKSIAGRWNGKSWITDSASSPCIDAGYIASDYSKEPQDNGGRINIGTYGNTKYASKSGTTEVVTNQAPVLNSIQDATVEIGESLTFTVSASDAEEDSLSYSASGLPTGATFDSESGIFAWTPAVGQEGTYSVTFVVSDGELTDSATAIINVSKQEDTSKQEDPSTITGEVYDNRLREASPDIVYQSSPFIDVGAMSIGSYRDIMWFDLSVYADYSEVNSATLSLYWYYPAGKARPEDTVIEIYRPADSWNPDYVSWNKKDKRVAWNNAGGDWYDRNGVLQGSTPYATITLEGSDLPDNRYYELDVTDLVNEYISSKYENTGFLIKARTENNNYIAFYSNDCGNENQKPKLTVTEEASVSPIDVQPIDVTVSGAKDNRLREASAENVYQSSAYVDVGALSGVGRYRDMMQFDLSEYADYSEVNSATLFLYWYYPAGKARPEDTVIEIYRPADSWNPDYVSWNKKDKRVAWNNAGGDWYDRNGVLQGSTPYATITLEGSDLPDNRYYELDVTDLVNEYISGKYENTGFLIKARTENNNYIAFYSSEAGGENQRPKLNLQLKQ”, which protein production is on record?
Its protein production is “failed”.

For “MNLELLTLAVGAYAAVLAFLGWLGYRRTRSAADYLVGGREIHPVLMALAYGSTFISTSAIVGFAGVAALMGMGLLWLTMLNILLGVFVAFVVFGRPTRRLGAALDAHTFPELLGRRYRSRFIQGFAGGTIALLMPLYAAAVLIGGARFLEVQLRLDYHMALFVFAAITVGYVLFGGLKGVVYTDAFQAVLMVCGMLVLLVATYAQVGGLSAHQALTDLADQVPPALRAQGHRGWTAMPAAGSPLWWQMVSTIVLGVGIGVLAQPQLTVRFMTVKSGRELHRALVPGGLFLLLMAGVAYVVGSLTNLWYFQRTGKIALAIMTDPATGKPNVDRLMPLYTQAAMPEWFAYLFMLALLAAAMSTLSAQFHAIGTAIGRDLYEQAFRLGGGAERTVLLARAGILAGFAGTVLLAWNLGPGVIAIATALFFGMCAATFLPAFVSALFWARSTRAGVIAGMLAGFGAWALWVLFVHERESAALGVVKALTGRTSLGAGTTWALVDPIVVALPIAALVTVVGSLAGRAAPGAETGGPARTREGGLDAGLR”, which protein production is on record?
The protein production was “failed”.
